Laboratory results reported in patent publication US20140199325A1.

Target: fibronectin (FN)
Assay: solid phase ELISA, HEK293T/17 lysate on FN-coated wells, detected with Cub7402, normalised for expression

fibronectin (FN), sequence (P02751 32-2477): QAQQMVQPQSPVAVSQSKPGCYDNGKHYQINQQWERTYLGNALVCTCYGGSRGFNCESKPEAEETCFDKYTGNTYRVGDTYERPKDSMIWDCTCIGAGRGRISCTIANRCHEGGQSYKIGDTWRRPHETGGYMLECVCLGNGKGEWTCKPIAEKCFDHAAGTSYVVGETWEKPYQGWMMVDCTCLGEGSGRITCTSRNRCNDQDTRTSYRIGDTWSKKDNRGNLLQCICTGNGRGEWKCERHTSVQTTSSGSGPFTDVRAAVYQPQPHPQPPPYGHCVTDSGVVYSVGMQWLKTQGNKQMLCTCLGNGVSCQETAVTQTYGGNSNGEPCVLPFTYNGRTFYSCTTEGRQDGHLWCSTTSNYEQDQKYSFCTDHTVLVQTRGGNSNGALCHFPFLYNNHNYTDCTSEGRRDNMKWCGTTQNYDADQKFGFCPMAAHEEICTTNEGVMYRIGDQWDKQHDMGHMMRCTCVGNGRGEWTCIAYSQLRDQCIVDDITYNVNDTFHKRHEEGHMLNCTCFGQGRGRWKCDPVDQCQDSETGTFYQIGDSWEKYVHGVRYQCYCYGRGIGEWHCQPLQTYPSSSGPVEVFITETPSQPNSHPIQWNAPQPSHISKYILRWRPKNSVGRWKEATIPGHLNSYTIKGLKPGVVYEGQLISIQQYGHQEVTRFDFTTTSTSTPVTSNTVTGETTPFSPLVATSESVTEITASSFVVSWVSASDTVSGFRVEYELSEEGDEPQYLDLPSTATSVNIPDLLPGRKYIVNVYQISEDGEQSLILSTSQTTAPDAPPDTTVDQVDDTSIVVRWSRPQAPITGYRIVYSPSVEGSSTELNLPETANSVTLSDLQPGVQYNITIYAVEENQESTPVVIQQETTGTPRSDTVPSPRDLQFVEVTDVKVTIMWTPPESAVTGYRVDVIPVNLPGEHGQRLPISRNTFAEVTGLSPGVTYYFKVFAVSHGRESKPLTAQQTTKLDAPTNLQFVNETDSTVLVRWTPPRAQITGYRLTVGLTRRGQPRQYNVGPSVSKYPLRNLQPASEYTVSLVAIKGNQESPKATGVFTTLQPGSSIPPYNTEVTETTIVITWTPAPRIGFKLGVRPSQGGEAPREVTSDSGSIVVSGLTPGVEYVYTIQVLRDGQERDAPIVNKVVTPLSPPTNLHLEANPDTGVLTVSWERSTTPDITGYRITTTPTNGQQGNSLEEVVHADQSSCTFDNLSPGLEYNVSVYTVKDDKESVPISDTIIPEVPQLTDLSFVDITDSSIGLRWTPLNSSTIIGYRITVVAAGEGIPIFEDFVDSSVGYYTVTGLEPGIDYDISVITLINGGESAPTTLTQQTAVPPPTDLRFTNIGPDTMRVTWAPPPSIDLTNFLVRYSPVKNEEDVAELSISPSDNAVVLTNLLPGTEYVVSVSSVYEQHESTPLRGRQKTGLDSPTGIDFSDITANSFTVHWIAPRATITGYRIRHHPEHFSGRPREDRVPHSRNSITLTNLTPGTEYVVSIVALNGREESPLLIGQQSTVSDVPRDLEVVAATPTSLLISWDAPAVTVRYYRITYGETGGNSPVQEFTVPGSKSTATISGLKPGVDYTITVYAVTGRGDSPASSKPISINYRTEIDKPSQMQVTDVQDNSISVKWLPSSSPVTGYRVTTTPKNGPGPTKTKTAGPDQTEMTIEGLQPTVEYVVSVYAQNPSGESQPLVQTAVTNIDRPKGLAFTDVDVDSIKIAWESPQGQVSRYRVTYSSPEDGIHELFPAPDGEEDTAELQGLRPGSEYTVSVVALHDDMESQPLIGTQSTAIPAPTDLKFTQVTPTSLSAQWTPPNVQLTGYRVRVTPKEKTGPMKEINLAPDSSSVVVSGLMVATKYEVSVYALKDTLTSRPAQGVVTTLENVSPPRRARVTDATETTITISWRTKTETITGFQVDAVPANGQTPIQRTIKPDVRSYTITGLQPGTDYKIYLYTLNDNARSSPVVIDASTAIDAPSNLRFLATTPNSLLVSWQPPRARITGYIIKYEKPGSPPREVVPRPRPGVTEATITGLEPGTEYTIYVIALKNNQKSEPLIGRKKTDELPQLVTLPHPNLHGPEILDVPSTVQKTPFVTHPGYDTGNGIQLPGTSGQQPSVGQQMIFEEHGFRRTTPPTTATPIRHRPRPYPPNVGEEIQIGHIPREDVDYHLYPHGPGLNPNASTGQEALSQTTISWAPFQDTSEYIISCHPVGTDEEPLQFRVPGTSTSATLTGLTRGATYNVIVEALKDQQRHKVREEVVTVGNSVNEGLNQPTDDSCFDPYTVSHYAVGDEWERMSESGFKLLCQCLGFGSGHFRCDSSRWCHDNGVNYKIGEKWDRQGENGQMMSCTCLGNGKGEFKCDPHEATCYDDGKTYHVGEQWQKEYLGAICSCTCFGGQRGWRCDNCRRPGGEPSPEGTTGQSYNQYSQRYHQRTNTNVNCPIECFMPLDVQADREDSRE

Row | Substance | binding capacity of the wild type [%] | binding compared to wild type TG2 [%]
1 | N-terminal deletion product of TG2 (Δ1-15) (from UniProt P21980 16-687) (enzyme) | 40 | –
2 | TG2 FN binding site mutant (D94A, D97A) (from UniProt P21980 2-687) (enzyme) | – | 50
